# In paper PMC9105653, “Zinc and Copper Ions Induce Aggregation of Human β-Crystallins” (Molecules, 2022):
# Target: the molecule itself
# Assay: dynamic light scattering; 50 µM protein in 10 mM Hepes pH 8.0, 100 mM NaCl (buffer B), without metal ions; apparent RH compared with the RH predicted (HullRad) from face-en-face dimer models
protein,measurement,value
"human βB2-crystallin (HβB2) (natural protein, human beta-crystallin B2; printed length 205 residues; source: E. coli BL21-RIL, purified (HisTrap, SUMO protease Ulp1 cleavage, second HisTrap, Q-Sepharose)) ASDHQTQAGKPQSLNPKIIIFEQENFQGHSHELNGPCPNLKETGVEKAGSVLVQAGPWVGYEQANCKGEQFVFEKGEYPRWDSWTSSRRTDSLSSLRPIKVDSQEHKIILYENPNFTGKKMEIIDDDVPSFHAHGYQEKVSSVRVQSGTWVGYQYPGYRGLQYLLEKGDYKDSSDFGAPHPQVQSVRRIRDMQWHQRGAFHPSN",stoichiometry N,2
"human βA1-crystallin (HβA1) (natural protein, UniProt P05813-2 1-198, looked up, human beta-crystallin A1, the shorter product of the gene CRYBA1 (made with betaA3 from the same gene by leaky ribosomal scanning); printed length 198 residues; source: E. coli BL21-RIL, purified (HisTrap, SUMO protease Ulp1 cleavage, second HisTrap, Q-Sepharose)) MAQTNPTPGSLGPWKITIYDQENFQGKRMEFTSSCPNVSERSFDNVRSLKVESGAWIGYEHTSFCGQQFILERGEYPRWDAWSGSNAYHIERLMSFRPICSANHKESKMTIFEKENFIGRQWEISDDYPSLQAMGWFNNEVGSMKIQSGAWVCYQYPGYRGYQYILECDHHGGDYKHWREWGSHAQTSQIQSIRRIQQ",stoichiometry N,2
